Laboratory results taken from US20030087827A1.
Each block holds one binder with its values, some of them ahead of it. Non-standard residues stand in square brackets, D forms with d.

How the values were obtained:
[1] = target: recombinant truncated mouse furin (mouse) (UniProt P23188); assay: enzyme inhibition, pERTKR-MCA hydrolysis (fluorescence), competitive Ki
[2] = target: proprotein convertase PC2; assay: as above
proprotein convertase PC2, sequence (P21661 109-637): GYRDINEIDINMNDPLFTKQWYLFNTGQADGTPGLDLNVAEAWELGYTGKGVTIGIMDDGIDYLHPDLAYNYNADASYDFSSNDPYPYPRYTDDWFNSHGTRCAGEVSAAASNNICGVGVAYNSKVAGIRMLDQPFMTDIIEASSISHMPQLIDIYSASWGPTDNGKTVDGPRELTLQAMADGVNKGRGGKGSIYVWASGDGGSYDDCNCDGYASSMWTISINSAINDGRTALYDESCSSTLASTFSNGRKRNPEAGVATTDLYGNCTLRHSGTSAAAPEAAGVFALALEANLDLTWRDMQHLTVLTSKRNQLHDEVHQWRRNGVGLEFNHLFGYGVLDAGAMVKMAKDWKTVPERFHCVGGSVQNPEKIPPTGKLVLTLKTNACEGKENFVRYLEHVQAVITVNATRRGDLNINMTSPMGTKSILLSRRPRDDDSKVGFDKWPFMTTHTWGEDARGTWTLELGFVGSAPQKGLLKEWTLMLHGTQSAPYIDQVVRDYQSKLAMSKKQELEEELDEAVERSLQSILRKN

recombinant truncated mouse furin (mouse), sequence (P23188 108-714): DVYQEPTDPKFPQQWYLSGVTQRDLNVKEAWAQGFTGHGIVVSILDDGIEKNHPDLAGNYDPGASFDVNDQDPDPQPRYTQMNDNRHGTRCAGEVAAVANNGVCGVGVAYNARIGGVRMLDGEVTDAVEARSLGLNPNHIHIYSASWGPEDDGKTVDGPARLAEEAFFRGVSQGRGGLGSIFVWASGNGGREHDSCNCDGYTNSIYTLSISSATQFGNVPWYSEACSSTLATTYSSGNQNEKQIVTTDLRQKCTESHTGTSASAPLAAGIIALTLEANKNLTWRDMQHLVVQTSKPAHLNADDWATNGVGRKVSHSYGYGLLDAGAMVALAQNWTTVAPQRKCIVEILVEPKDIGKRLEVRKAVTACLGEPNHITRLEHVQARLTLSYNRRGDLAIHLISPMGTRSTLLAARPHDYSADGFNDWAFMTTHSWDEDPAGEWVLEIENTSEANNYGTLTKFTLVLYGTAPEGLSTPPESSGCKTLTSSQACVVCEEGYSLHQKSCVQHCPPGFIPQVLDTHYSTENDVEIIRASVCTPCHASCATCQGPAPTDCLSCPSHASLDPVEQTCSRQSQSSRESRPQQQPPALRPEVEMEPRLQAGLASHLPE

Ki [1]: 5.3 µM | Ki [2]: 203 µM
B1: Ac-wrrrrl-NH2 (peptide)
peptide: Ac-[dW][dR][dR][dR][dR][dL]-NH2
SMILES: CC(=O)N[C@H](Cc1c[nH]c2ccccc12)C(=O)N[C@H](CCCNC(=N)N)C(=O)N[C@H](CCCNC(=N)N)C(=O)N[C@H](CCCNC(=N)N)C(=O)N[C@H](CCCNC(=N)N)C(=O)N[C@H](CC(C)C)C(N)=O

Ki [1]: 22.7 µM | Ki [2]: 601 µM
B2: Ac-wrrril-NH2 (peptide)
peptide: Ac-[dW][dR][dR][dR][dI][dL]-NH2
SMILES: CC[C@@H](C)[C@@H](NC(=O)[C@@H](CCCNC(=N)N)NC(=O)[C@@H](CCCNC(=N)N)NC(=O)[C@@H](CCCNC(=N)N)NC(=O)[C@@H](Cc1c[nH]c2ccccc12)NC(C)=O)C(=O)N[C@H](CC(C)C)C(N)=O

Ki [1]: 7 µM | Ki [2]: 399 µM
B3: Ac-wrrrir-NH2 (peptide)
peptide: Ac-[dW][dR][dR][dR][dI][dR]-NH2
SMILES: CC[C@@H](C)[C@@H](NC(=O)[C@@H](CCCNC(=N)N)NC(=O)[C@@H](CCCNC(=N)N)NC(=O)[C@@H](CCCNC(=N)N)NC(=O)[C@@H](Cc1c[nH]c2ccccc12)NC(C)=O)C(=O)N[C@H](CCCNC(=N)N)C(N)=O

Ki [1]: 2.4 µM | Ki [2]: 334 µM
B4: Ac-wrrrrr-NH2 (peptide)
peptide: Ac-[dW][dR][dR][dR][dR][dR]-NH2
SMILES: CC(=O)N[C@H](Cc1c[nH]c2ccccc12)C(=O)N[C@H](CCCNC(=N)N)C(=O)N[C@H](CCCNC(=N)N)C(=O)N[C@H](CCCNC(=N)N)C(=O)N[C@H](CCCNC(=N)N)C(=O)N[C@H](CCCNC(=N)N)C(N)=O
